Square brackets hold non-standard residues; d marks the D form. Ends that are not written are not given here. pT = C[C@@H](OP(=O)(O)O)[C@H](N)C(=O)O; pS = N[C@@H](COP(=O)(O)O)C(=O)O
Tests used:
[1] = biological target: T1, Rattus norvegicus wild-type β-arrestin2 (Rattus norvegicus, UniProt P29067 1-410); assay: ITC; site I (KD1)
[2] = biological target: T1, Rattus norvegicus wild-type β-arrestin2; assay: ITC; site II (KD2)

T1 sequence (P29067 whole entry): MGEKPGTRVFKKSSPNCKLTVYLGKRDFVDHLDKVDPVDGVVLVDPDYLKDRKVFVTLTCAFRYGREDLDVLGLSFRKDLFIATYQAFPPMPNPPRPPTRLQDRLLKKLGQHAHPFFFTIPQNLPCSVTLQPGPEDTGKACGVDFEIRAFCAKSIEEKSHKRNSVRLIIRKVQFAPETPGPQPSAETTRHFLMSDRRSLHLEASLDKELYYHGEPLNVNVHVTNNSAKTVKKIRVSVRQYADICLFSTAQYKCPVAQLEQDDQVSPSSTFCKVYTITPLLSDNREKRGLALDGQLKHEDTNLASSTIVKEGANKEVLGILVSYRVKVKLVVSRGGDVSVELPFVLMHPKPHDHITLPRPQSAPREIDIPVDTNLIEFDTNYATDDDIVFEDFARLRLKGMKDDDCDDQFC

- Kd [1]: 79.9 nM
- Kd [2]: 3.32 µM
Binder: ASRV[pS]E[pT]EY[pS]ALEQ [C7pp2, phosphopeptide from the carboxyl terminus of CXCR7 (residues 346-359)]
